Experimental findings from article PMC314469, “Protein Interaction Networks by Proteome Peptide Scanning” (PLoS Biology, 2004) are described below.

In assay [1] the target is endophilin SH3 (SH3G2_HUMAN), Q99962. The experiment in a line: SPOT array.
In assay [2] the target is T1, amphyphisin SH3 (AMPH_HUMAN), P49418.
T1 chain: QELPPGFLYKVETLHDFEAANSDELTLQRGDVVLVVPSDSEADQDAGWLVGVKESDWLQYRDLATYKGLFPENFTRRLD
The experiment in a line: SPOT array.

As for PPLLPRRPPPRVPA [O15056 1170-1184], the normalised SPOT signal, Boehringer light units (BLU); mean over the file's lines of this peptide was determined as 7190 in assay [1] and 4490 in assay [2].
As to PPGPPTRPPGPWRW [O15354 108-122], the values for the normalised SPOT signal, Boehringer light units (BLU); mean over the file's lines of this peptide in assay [1] and in assay [2] were 9250 and 1320, respectively.
For ASATLGRPPRIPEP [Q9H0P6 178-191], in that order: 65.5 and 139.
For PPKWIRRPTGVSFA [Q9NQW1 380-393], in that order: 433 and 42.3.
For PPKRPGRPPKNRES [P55201 903-917], in that order: 13900 and 7550.
With PPLLPPRPPQGLEP [Q8TEH3 833-847], the normalised SPOT signal, Boehringer light units (BLU); mean over the file's lines of this peptide was determined as 335 in assay [1] and 107 in assay [2].
For PPHLPARPPGGWSR [BAC04291 42-56], in that order: 2410 and 1280.
For PPKWIRRPVGASFS [O94979 386-399], in that order: 642 and 41.1.
With AARTLRRPKALDSG [Q96RY6 273-286], the normalised SPOT signal, Boehringer light units (BLU); mean over the file's lines of this peptide was 0 in assay [1] and 7.6 in assay [2].
Consider PPGLPPRPPLSSSS [Q13470 532-546], for which the results for the normalised SPOT signal, Boehringer light units (BLU); mean over the file's lines of this peptide in assay [1] and in assay [2] were 5470 and 433, respectively.
Turning to PPGKPERPPPQGGN [P10163 115-129], the normalised SPOT signal, Boehringer light units (BLU); mean over the file's lines of this peptide in assay [1] amounted to 760; in assay [2], 59.4.
PPLPPPRPPRPPSP [Q9UPS6 160-174]: the normalised SPOT signal, Boehringer light units (BLU); mean over the file's lines of this peptide was determined as 8000 in assay [1] and 5630 in assay [2].
For PPLLPGRPARDRGP [Q9Y6J0 1777-1790], in that order: 27100 and 6220.
For PPPIPKKPPKGKFP [Q9P1A6 952-966], in that order: 3890 and 64.7.
For PPLEPARPNRHPES [Q9H293 60-73], in that order: 0 and 282.
